Assay [1] has as its target T1, A1-A2 domain of human MICB with C-terminal 6x-His tag (monomer) (human, UniProt Q29980 24-205).
T1 construct: range 24-205; also called MIC-His ligand
T1 sequence: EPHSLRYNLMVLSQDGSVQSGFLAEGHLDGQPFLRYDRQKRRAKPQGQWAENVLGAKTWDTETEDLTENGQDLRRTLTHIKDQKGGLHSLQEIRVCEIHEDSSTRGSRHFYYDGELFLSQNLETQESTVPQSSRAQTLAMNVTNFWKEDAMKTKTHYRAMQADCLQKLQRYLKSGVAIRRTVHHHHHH
The experiment in a line: Octet BLI, response against concentration (legend: monomeric ligands; axis on the sheet: nM Fc-iNKG2D.AF). (BLI is a label-free optical method that tracks binding on a fibre tip over time.)

The target of assay [2] is T2, A1-A2 domain of human MICA*001 with C-terminal 6x-His tag (monomer) (human, UniProt Q29983 24-205).
T2 construct: range 24-205; also called MIC-His ligand
T2 sequence: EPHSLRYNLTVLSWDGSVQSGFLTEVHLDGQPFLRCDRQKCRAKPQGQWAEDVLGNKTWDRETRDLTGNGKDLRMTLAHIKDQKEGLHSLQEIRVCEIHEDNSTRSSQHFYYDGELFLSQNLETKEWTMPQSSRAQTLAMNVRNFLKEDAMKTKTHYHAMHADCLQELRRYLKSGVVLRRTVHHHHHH
Nature of the assay: Octet BLI, Fc-iNKG2D.AF on AHC tips, monomeric ligand (FIG. 3A). An excerpt: (§1) Library design and phage panning performed was as described for iNKG2D. […] Data are representative of two experiments. […] Error bars represent ±SD of technical replicates.

Assay [3] concerns the target T3, A1-A2 domain of human ULBP3 with C-terminal 6x-His tag (monomer) (human, UniProt Q9BZM4 30-212).
T3 construct: range 30-212; also called MIC-His ligand
T3 sequence: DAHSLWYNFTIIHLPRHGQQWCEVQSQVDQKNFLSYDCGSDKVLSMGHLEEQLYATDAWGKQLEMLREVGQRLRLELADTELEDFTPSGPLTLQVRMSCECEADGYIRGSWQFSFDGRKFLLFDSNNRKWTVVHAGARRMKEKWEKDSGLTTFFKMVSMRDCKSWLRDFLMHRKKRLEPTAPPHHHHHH
The description is as above.
From the text: as §1

In assay [4] the target is T2, A1-A2 domain of human MICA*001 with …. The experiment in a line: Octet BLI; Fc-iNKG2D.YA captured on AHC tips, dilution series of His-tagged monomeric ligand. An excerpt:
(§2) Note that all axes are to the same scale (Binding-0 nm, 0.4 nm. 0.8 nm, 1.2 nm (y-axis); Time-0 s, 50 s, 100 s, 150 s, 200 s, 250 s, 300 s, 350 s (x-axis). Data is representative of a single experiment.

Assay [5] addresses T1, A1-A2 domain of human MICB with …. Described as above.
From the text: as §2

Assay [6] concerns the target T3, A1-A2 domain of human ULBP3 with …. The description is as above.
From the text: as §2

Assay [7] concerns the target T4, MICA-Fc (R&D Systems) (human, UniProt Q29983 24-308, limits assumed).
T4 construct: Bought; also called Ligand-Fc fusion; not shown: Fc of the bought fusion; not described
T4 sequence (looked up): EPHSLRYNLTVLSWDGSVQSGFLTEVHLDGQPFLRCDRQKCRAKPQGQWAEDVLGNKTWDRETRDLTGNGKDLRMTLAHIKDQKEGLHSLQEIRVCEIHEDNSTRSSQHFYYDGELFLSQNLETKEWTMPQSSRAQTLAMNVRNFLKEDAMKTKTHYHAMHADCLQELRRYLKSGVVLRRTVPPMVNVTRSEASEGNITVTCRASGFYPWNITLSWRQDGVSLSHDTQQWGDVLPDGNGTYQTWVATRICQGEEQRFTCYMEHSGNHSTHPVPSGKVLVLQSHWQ
Nature of the assay: ELISA; ligand-Fc coated, biotinylated Fc-iNKG2D.YA, streptavidin-HRP (legend: the Fc-NKG2D is titrated; axis on the sheet: nM ligand-Fc).

Assay [8] concerns the target T5, ULBP2-Fc (R&D Systems) (human, UniProt Q9BZM5 26-217).
T5 construct: Bought; also called Ligand-Fc fusion; not shown: Fc of the bought fusion; not described
T5 sequence (looked up): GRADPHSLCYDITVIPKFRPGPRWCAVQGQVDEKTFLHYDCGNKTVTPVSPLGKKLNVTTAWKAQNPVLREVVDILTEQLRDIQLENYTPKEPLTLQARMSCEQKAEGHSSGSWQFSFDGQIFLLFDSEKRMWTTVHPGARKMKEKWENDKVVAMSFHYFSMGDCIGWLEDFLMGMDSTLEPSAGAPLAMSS
The description is as above.

For assay [9], the target named is T6, ULBP3-Fc (R&D Systems) (human, UniProt Q9BZM4 30-217).
T6 construct: Bought; also called Ligand-Fc fusion; not shown: Fc of the bought fusion; not described
T6 sequence (looked up): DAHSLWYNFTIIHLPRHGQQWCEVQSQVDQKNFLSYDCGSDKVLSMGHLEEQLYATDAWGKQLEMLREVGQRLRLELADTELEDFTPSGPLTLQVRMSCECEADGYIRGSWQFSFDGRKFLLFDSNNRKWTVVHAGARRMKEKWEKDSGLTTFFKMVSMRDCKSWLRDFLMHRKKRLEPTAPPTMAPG
Described as above.

The target in assay [10] is T7, MICB-Fc (R&D Systems) (human, UniProt Q29980 23-298, limits assumed).
T7 construct: Bought; also called Ligand-Fc fusion; not shown: Fc of the bought fusion; not described
T7 sequence (looked up): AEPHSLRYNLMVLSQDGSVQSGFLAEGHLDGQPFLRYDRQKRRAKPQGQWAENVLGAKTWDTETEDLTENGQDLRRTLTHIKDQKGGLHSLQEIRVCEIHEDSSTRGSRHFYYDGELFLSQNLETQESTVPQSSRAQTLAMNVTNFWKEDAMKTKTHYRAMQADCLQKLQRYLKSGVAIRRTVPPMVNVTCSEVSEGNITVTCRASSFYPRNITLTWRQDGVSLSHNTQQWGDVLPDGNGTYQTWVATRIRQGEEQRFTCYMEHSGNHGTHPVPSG
The description is as above.

Assay [11] concerns the target T8, ULBP1-Fc (R&D Systems) (human, UniProt Q9BZM6 26-216).
T8 construct: Bought; also called Ligand-Fc fusion; not shown: Fc of the bought fusion; not described
T8 sequence (looked up): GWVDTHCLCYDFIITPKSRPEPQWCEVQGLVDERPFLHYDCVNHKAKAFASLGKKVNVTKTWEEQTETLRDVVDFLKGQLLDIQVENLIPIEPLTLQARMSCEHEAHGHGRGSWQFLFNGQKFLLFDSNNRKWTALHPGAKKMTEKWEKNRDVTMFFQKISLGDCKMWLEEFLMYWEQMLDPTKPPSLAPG
Described as above.

Assay [12] addresses T9, ULBP4-Fc (R&D Systems) (human, UniProt Q8TD07 31-225, limits assumed).
T9 construct: Bought; also called Ligand-Fc fusion; not shown: Fc of the bought fusion; not described
T9 sequence (looked up): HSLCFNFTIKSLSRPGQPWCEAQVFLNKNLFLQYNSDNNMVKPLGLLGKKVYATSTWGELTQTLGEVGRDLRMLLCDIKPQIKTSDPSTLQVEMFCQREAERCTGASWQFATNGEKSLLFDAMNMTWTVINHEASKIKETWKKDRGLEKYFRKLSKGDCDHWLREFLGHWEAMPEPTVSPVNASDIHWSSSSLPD
Described as above.

For assay [13], the target named is T10, His-tagged monomeric ULBP2 R81W (human, UniProt Q9BZM5 29-212).
T10 construct: range 29-212; Construct limits are stated only for wild-type ULBP2-His; position 81 counts on the mature protein, not on the UniProt entry
T10 sequence: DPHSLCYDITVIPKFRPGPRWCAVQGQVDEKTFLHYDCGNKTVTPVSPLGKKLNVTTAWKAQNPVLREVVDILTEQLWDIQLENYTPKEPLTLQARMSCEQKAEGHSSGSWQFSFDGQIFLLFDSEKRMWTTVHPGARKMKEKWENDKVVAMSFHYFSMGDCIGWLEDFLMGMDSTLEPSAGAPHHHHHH
The experiment in a line: Octet BLI; Fc-iNKG2D.YA captured on AHC tips, dilution series of His-tagged monomeric ligand. From the text:
YA. […] YA were captured with anti-human IgG Fc capture (AHC) biosensor tips then associated with a dilution series of ligand. Data are from single experiments.

Residue numbers refer to the chain shown, from its start. Numbers in names are those of the source.

As usually defined, the Kd is a measure of binding affinity in units of concentration. Read a low Kd as a tighter complex.

B1: Fc-iNKG2D.AF (NKG2D ectodomain Y152A/Y199F fused to the C-terminus of human IgG1 Fc) (Fc fusion)
chain: IEGRFLNSLFNQEVQIPLTESYCGPCPKNWICYKNNCYQFFDESKNWYESQASCMSQNASLLKVYSKEDQDLLKLVKSAHWMGLVHIPTNGSWQWEDGSILSPNLLTIIEMQKGDCALYASSFKGFIENCSTPNTYICMQRTV
notes: range 78-216; also called Fc-NKG2D.AF; not shown: human IgG1 Fc
For the molecule B1, the binding result is given as “binds” in assay [1], “no binding” in [2] and “no binding” in assay [3].

B2: Fc-iNKG2D.YA (NKG2D ectodomain Y152A fused to the C-terminus of human IgG1 Fc) (Fc fusion)
chain: B1 chain with F126Y
notes: range 78-216; it is not tied by words to this Fc fusion; not shown: human IgG1 Fc
On to B2, for which the binding result is reported as “no binding (tested: 1.2 uM)” in [4]; “no binding (tested: 0.3 uM)” in assay [5]; “no binding (tested: 1.2 uM)” in assay [6]; “no binding (tested: 2000 nM)” in assay [7]; “no binding (tested: 2000 nM)” in [8]; “no binding (tested: 2000 nM)” in assay [9]. The binding result in assay [10], in assay [11] and in [12] was “no binding (tested: 2000 nM)” throughout. Further, the affinity in assay [13], expressed as Kd, was 3.6 µM.

The record behind these values is patent US20240287202A1 (XYPHOS BIOSCIENCES, published 2024).
